Results published in patent publication EP4755920A1.

Target: hIL4Rα-ECD(26-232)-mFc (human)
Assay: competition ELISA, hIL4R-ECD-mFc captured by anti-mFc, biotinylated human IL4 as competitor

Which IC50 does the source give for Isotype (antibody) here?
Its IC50 is 9.95 nM.
